Experimental data as given in PMC7863765 (Journal of Molecular Biology, 2021).

Target: T1, polyphosphorylated full-length SARS-CoV-2 nucleocapsid protein pN.1-419 (SARS-CoV-2, UniProt P0DTC9 1-419)
T1 construct: also called phosphorylated N; polyphosphorylated N; not shown: His6, N-terminal, kept
Assay: SEC
Settings: both partners purified

B1: full-length human 14-3-3ε (as used in the SEC titration) (natural protein, UniProt P62258 1-255, looked up)
chain: MDDREDLVYQAKLAEQAERYDEMVESMKKVAGMDVELTVEERNLLSVAYKNVIGARRASWRIISSIEQKEENKGGEDKLKMIREYRQMVETELKLICCDILDVLDKHLIPAANTGESKVFYYKMKGDYHRYLAEFATGNDRKEAAENSLVAYKAASDIAMTELPPTHPIRLGLALNFSVFYYEILNSPDRACRLAKAAFDDAIAELDTLSEESYKDSTLIMQLLRDNLTLWTSDMQGDGEEQNKEALQDVEDENQ
notes: human 14-3-3 protein epsilon, full length; Same construct as m21 (TEV-cleavable His6-tag)
- Kd: 10.7 µM
- stoichiometry N: ~1 14-3-3ε chains per pN.1-419 chain (2:2)

B2: untagged full-length human 14-3-3ζ (natural protein, UniProt P63104 1-245, looked up)
chain: MDKNELVQKAKLAEQAERYDDMAACMKSVTEQGAELSNEERNLLSVAYKNVVGARRSSWRVVSSIEQKTEGAEKKQQMAREYREKIETELRDICNDVLSLLEKFLIPNASQAESKVFYLKMKGDYYRYLAEVAAGDDKKGIVDQSQQAYQEAFEISKKEMQPTHPIRLGLALNFSVFYYEILNSPEKACSLAKTAFDEAIAELDTLSEESYKDSTLIMQLLRDNLTLWTSDTQGDEAEAGEGGEN
notes: human 14-3-3 protein zeta, full length, untagged; also called wild-type dimeric 14-3-3ζ
- binding result: binds
